Assay results reported in patent US9878046B2, “Adverse side-effects associated with administration of an anti-hyaluronan agent and methods for ameliorating or preventing the side-effects” (Halozyme, Inc., priority 2010, dated 2018).
“Also recorded” adds a separate entry of the source.

Columns and labels:
[1] = Hyaluronidase activity (microturbidity assay), specific activity; format: biochemical
Description: Hyaluronidase activity of soluble rHuPH20 is measured by incubating soluble rHuPH20 with sodium hyaluronate (hyaluronic acid) for a set period of time (10 minutes) and then precipitating the undigested sodium hyaluronate with the addition of acidified serum albumin. The turbidity of the resulting sample is measured at 640 nm after a 30 minute development period.
Dilutions of the sample were prepared in Enzyme Diluent Solutions. The Enzyme Diluent Solution was prepared by dissolving 33.0±0.05 mg of hydrolyzed gelatin in 25.0 mL of the 50 mM PIPES Reaction Buffer (140 mM NaCl, 50 mM PIPES, pH 5.5) and 25.0 mL of sterile water for injection (SWFI), and diluting 0.2 mL of 25% Buminate solution into the mixture and vortexing for 30 seconds. This was performed within 2 hours of use and stored on ice until needed. The samples were diluted to an estimated 1-2 U/mL. […]
The MULTIDROP 384 was prepared to stop the reaction by priming the machine with Serum Working Solution and changing the volume setting to 240 μL. […] The plate was removed and shaken on a plate reader for 10 seconds. After a further 15 minutes, the turbidity of the samples was measured at 640 nm and the hyaluronidase activity (in U/mL) of each sample was determined by fitting to the standard curve.
Specific activity (Units/mg) was calculated by dividing the hyaluronidase activity (U/ml) by the protein concentration (mg/mL).

[2] = tested on: soluble plasma hyaluronan; experiment: Soluble plasma hyaluronan ELISA in PC3 tumor-bearing mice; format: in vivo; settings: PEGPH20 4.5 mg/kg alone or + dexamethasone (high or low dose)
Description: Plasma samples were additionally used to measure soluble plasma hyaluronan in the control group and each of the treatment groups (R&D Systems Catalog DY3614; ELISA assay). In the vehicle control group, the plasma hyaluronan levels ranged from 800,000 to 900,000 ng/mL.

pericellular hyaluronan = experiment: Hyaluronan staining of PC3 tumor sections; format: in vivo, human (xenograft in athymic male nude mice); settings: Day 14, dexamethasone low or high dose, PEGPH20 4.5 mg/kg, or both
Description: Tumor tissues from the two satellite mice from all 6 treatment groups in Example 9A.1 above, were harvested by tissue biopsy on Day 14 and stained for the presence of hyaluronan. Tumor biopsies were fixed in 10% NBF for 48 hours, embedded in paraffin, and sectioned. Samples were probed for hyaluronan using a biotinylated HA-binding protein (HABP), then probed with FITC-labeled streptavidin for detection. The cell nuclei were counterstained with DAPI (4′,6-diamidino-2-phenylindole) reagent. Micrographs were then captured using a Zeiss Microscope (Thornwood, N.Y.) coupled with the Spot imaging program (Diagnostic Instruments, Inc).
Hyaluronan expression in the sections was evaluated by the level of green fluorescent intensity in the sections.

[3] = Clinical study (Phase 1-101), musculoskeletal adverse events of PEGPH20
Description: The median age of the patients was age 61 (range 56-86) with tumor types including histiocytoma, colorectal, pancreatic, bladder, carcinoid and ovarian. In all cases, the patients entered the program under pain medication related to their presenting condition but not for study drug-related pain.

B1: PEGPH20 (protein)
chain: LNFRAPPVIPNVPFLWAWNAPSEFCLGKFDEPLDMSLFSFIGSPRINATGQGVTIFYVDRLGYYPYIDSITGVTVNGGIPQKISLQDHLDKAKKDITFYMPVDNLGMAVIDWEEWRPTWARNWKPKDVYKNRSIELVQQQNVQLSLTEATEKAKQEFEKAGKDFLVETIKLGKLLRPNHLWGYYLFPDCYNHHYKKPGYNGSCFNVEIKRNDDLSWLWNESTALYPSIYLNTQQSPVAATLYVRNRVREAIRVSKIPDAKSPLPVFAYTRIVFTDQVLKFLSQDELVYTFGETVALGASGIVIWGTLSIMRSMKSCLLLDNYMETILNPYIINVTLAAKMCSQVLCQEQGVCIRKNWNSSDYLHLNPDNFAIQLEKGGKFTVRGKPTLEDLEQFSEKFYCSCYSTLSCKEKADVKDTDAVDVCIADGVCIDAFLKPPMETEEPQIFY
Question: Which results are given for B1?
Answer: final enzyme activity ([1]; PEGylated rHuPH20 material at 3.5 mg/mL): 140,000 U/mL; specific activity ([1]; rHuPH20 preparation vs PEGylated form): about 32,000 Units/mg; plasma hyaluronan [2]: no detectable (below limit of quantitation) hyaluronan; pericellular hyaluronan staining of tumor sections (pericellular hyaluronan): almost completely absent; dose-limiting toxicity ([3]; 0.5 μg/kg IV every 21 days): No dose-limiting toxicities; musculoskeletal side effects, severity ([3]; 0.5 μg/kg IV every 21 days, three patients): intermittent Grade 1 or transient Grade 2; dose-limiting toxicity ([3]; 0.5 μg/kg IV twice weekly): met dose-limiting toxicity; severity of muscle/joint pain ([3]; 0.5 μg/kg IV twice weekly, after 2 doses): Grade 3; musculoskeletal pain leading to discontinuation (summary) ([3]; 0.5 μg/kg in a 21 day cycle): Grade 3; dose-limiting toxicity ([3]; 0.75 μg/kg IV every 21 days, Grade 3 event after first cycle): not considered a dose-limiting toxicity; musculoskeletal side effects, severity ([3]; 0.75 μg/kg IV every 21 days, cohort and individual patients): intermittent Grade 1 or transient Grade 2; also recorded: Grade 1; also recorded: Grade 3; also recorded: Grade 2; dose-limiting toxicity ([3]; 1.0 μg/kg IV every 21 days): no dose-limiting toxicities; musculoskeletal symptoms, severity ([3]; 1.0 μg/kg IV every 21 days, one of three patients): Grade 1; dose-limiting toxicity ([3]; 1.5 μg/kg IV every 21 days, one patient): no dose-limiting toxicities; musculoskeletal pain leading to discontinuation (summary) ([3]; 50.0 μg/kg dose twice weekly, individual patients): Grade 4; also recorded: Grade 3; duration of pain ([3]; single IV dose 0.05 mg/kg): more than 9 days; onset of stiffness and muscle and joint pain after dosing ([3]; single IV dose 0.05 mg/kg): 6 to 10 h; severity of muscle/joint pain ([3]; single IV dose 0.05 mg/kg, individual patients): Grade 3
